# Assay results published in IntAct's records for PubMed 14561633.
# B1: Transcription factor GLABRA 3 (Arabidopsis thaliana (Mouse-ear cress)), Q9FN69 (parent)
# chain: MATGQNRTTVPENLKKHLAVSVRNIQWSYGIFWSVSASQSGVLEWGDGYYNGDIKTRKTIQASEIKADQLGLRRSEQLSELYESLSVAESSSSGVAAGSQVTRRASAAALSPEDLADTEWYYLVCMSFVFNIGEGMPGRTFANGEPIWLCNAHTADSKVFSRSLLAKSAAVKTVVCFPFLGGVVEIGTTEHITEDMNVIQCVKTSFLEAPDPYATILPARSDYHIDNVLDPQQILGDEIYAPMFSTEPFPTASPSRTTNGFDQEHEQVADDHDSFMTERITGGASQVQSWQLMDDELSNCVHQSLNSSDCVSQTFVEGAAGRVAYGARKSRVQRLGQIQEQQRNVKTLSFDPRNDDVHYQSVISTIFKTNHQLILGPQFRNCDKQSSFTRWKKSSSSSSGTATVTAPSQGMLKKIIFDVPRVHQKEKLMLDSPEARDETGNHAVLEKKRREKLNERFMTLRKIIPSINKIDKVSILDDTIEYLQELERRVQELESCRESTDTETRGTMTMKRKKPCDAGERTSANCANNETGNGKKVSVNNVGEAEPADTGFTGLTDNLRIGSFGNEVVIELRCAWREGVLLEIMDVISDLHLDSHSVQSSTGDGLLCLTVNCKHKGSKIATPGMIKEALQRVAWIC
# partner: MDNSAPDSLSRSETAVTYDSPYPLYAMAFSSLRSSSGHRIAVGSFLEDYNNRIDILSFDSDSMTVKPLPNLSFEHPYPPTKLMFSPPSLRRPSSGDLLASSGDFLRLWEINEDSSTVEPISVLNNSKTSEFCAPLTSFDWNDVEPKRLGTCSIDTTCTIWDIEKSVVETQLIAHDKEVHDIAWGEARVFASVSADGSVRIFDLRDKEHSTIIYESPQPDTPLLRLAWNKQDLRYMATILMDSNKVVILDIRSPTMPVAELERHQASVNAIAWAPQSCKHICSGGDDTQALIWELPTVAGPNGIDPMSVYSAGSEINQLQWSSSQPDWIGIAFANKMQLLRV
# B2: Transcription factor GLABRA 3 (Arabidopsis thaliana (Mouse-ear cress)), Q9FN69 (parent)
# chain: B1 chain
# partner: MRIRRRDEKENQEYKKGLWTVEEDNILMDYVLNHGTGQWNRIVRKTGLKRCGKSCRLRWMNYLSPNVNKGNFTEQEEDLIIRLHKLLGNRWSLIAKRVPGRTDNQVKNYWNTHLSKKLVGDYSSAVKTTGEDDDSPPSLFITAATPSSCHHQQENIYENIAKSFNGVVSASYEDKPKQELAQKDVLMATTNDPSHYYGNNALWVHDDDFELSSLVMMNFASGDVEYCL
# Variants of: B1
# Conditions: with ttg1_arath TTG1, Q9XGN1
row,effect of a mutation on the interaction,Variant
1,decreasing interaction,L78F

# Variants of: B2
# Conditions: with gl1_arath GL1, P27900
row,effect of a mutation on the interaction,Variant
1,decreasing interaction,L78F
